# Patent publication US20240010750A1 (Bayer, published 2024)
# B1: TPP-12387 hIgG1 (antibody, V domains shown)
# VH: EVQLLESGGGLVQPGGSLRLSCAASGFTFDDYAMSWVRQAPGKGLEWVSAIGTGGGTYYADSVKGRFTISRDNSKNTLYLQMNSLRAEDTAVYYCAREYYDSSGYYHLDYWGQGTLVTVSS
# VL: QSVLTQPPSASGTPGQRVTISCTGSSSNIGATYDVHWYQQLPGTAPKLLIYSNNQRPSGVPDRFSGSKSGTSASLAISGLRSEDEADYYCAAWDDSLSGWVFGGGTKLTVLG
# notes: Fully human IgG1 lambda from the BioInvent n-CoDeR Fab lambda library; parental lead antibody
# What was measured:
# [1] = biological target: T1, rabbit alpha2-Antiplasmin (rabbit (Oryctolagus cuniculus)); experiment: ELISA, coated antigen, 2nd exp.
# T1 construct: Made in house in HEK293 cells, purified by Ni-IMAC and SEC (a His tag is implied but not described); also called rabbit A2AP; Oryctolagus cuniculus A2AP
# T1 chain: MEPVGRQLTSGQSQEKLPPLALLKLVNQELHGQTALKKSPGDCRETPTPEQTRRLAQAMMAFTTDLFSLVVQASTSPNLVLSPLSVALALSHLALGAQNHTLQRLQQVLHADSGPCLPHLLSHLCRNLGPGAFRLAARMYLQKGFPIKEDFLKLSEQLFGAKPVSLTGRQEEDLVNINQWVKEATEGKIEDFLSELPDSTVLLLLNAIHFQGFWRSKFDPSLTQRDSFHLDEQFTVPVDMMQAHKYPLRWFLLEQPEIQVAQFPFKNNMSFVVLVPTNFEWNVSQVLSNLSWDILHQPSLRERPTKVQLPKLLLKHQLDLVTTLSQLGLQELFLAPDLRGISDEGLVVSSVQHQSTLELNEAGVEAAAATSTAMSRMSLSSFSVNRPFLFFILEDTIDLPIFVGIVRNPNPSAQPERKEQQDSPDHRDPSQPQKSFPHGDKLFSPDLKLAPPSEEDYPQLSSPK
# Method: (§1) A standard ELISA format was used for analyzing the binding affinity of Fabs of this invention to human and rabbit alpha-2-Antiplasmin, respectively. Antigens were coated to black 384 well Maxisorp microtiter plates (Nunc; catalogue number 460518), diluted to a concentration of 1 μg/ml in 1× Coating Buffer (Candor Bioscience; catalogue number 121125). Plates were incubated overnight at 4° C. After overnight incubation, plates were washed 2× with 50 μl/well using PBS+0.05% Tween 20. Following this, 50 μl/well of blocking buffer (Smart Block; Candor Bioscience; catalogue number 113500) was added and the plates were incubated for 1 hour at room temperature. Afterwards, plates were washed for 3× using […] PBS+0.05% Tween 20 buffer. Fabs of this invention were added at different concentrations in a final volume of 30 μl/well. Plates were incubated for 1 hour at room temperature. Following this incubation step, plates were washed for 3× using 50 μl/well of a PBS+0.05% Tween 20 buffer. For the detection of bound Fabs and full-length antibodies, the anti-Human Lambda Light Chains (Bound and Free)—Peroxidase antibody (Sigma; catalogue number A5175) was diluted by the factor of 1:10.000 in 10% Blocking Buffer. […]
# (§2) For measurement, the Infinite f500 reader (Tecan) was used. Measurement mode: Fluorescence; Top reading; Ex 535 nm; Em 590 nm. […]
# [2] = biological target: T2, human alpha2-Antiplasmin (human, UniProt P08697 40-491); experiment: ELISA, coated antigen, 2nd exp.
# T2 construct: Bought (antibodies online, ABIN2544306); also called human A2AP; a2AP
# T2 sequence: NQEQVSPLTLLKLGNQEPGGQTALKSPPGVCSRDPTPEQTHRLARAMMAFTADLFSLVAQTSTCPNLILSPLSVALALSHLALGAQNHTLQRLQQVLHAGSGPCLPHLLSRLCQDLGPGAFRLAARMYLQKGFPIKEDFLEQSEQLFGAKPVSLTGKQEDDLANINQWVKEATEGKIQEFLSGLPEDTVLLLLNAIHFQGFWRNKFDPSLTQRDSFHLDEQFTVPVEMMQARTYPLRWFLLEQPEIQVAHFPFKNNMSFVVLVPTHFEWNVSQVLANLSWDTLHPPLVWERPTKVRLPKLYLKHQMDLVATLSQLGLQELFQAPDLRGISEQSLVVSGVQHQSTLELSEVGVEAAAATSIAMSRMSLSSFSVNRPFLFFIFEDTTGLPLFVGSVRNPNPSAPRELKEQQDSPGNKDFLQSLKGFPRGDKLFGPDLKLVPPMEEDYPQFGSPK
# Method: as §1, §2
# [3] = biological target: T3, cynomolgus alpha2-Antiplasmin (cynomolgus (Macaca fascicularis), UniProt P08697 28-491 (human entry)); experiment: ELISA (Example 3): antigen coated at 1 ug/ml, detection with anti-human lambda light chain-peroxidase and Amplex Red, RFU
# T3 construct: Made in house in the same way as the rabbit protein; also called cynomolgus A2AP; Macaca fascicularis A2AP
# T3 chain: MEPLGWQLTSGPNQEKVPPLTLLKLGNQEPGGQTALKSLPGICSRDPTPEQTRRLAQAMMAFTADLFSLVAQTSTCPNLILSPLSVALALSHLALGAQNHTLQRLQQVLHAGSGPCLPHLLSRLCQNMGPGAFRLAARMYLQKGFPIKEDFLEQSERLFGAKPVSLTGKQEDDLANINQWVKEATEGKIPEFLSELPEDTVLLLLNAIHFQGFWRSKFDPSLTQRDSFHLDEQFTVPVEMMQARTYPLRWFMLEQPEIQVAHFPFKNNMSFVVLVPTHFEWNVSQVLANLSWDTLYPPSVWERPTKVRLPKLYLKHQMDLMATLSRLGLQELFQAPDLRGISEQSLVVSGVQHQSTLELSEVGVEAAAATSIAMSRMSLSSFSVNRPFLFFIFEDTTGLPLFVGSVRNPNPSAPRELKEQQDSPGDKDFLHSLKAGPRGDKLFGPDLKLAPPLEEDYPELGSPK
# Method: as §1, with “Buffer. 30 μl/well of this diluted detection antibody was added and plates are incubated for 1 hour at room temperature.” for “Buffer.”
# [4] = biological target: T3, cynomolgus alpha2-Antiplasmin; experiment: ELISA, coated antigen (FIG. 6.1 legend)
# [5] = biological target: T1, rabbit alpha2-Antiplasmin; experiment: ELISA, coated antigen, 1st exp.
# [6] = biological target: T3, cynomolgus alpha2-Antiplasmin; experiment: ELISA, coated antigen, 1st exp.
# [7] = biological target: T2, human alpha2-Antiplasmin; experiment: ELISA, coated antigen, 1st exp.
# [8] = biological target: T2, human alpha2-Antiplasmin; experiment: ELISA (Example 3): antigen coated at 1 ug/ml, detection with anti-human lambda light chain-peroxidase and Amplex Red, RFU [left panel]
# Method: Binding activities towards human alpha2-Antiplasmin are shown in the left panel, towards rabbit alpha2-Antiplasmin are shown in the right panel of this figure. The binding activities were calculated as EC50 in M values.
# as §1, with “buffer.” for “buffer. For the detection of bound Fabs and full-length antibodies, the anti-Human Lambda Light Chains (Bound and Free)—Peroxidase antibody (Sigma; catalogue number A5175) was diluted by the factor of 1:10.000 in 10% Blocking Buffer.”
# For measurement, the Infinite f500 reader (Tecan) was used.
binder,measurement,setting,value
B1,EC50,[1],6.07 nM
same,EC50,[2],100 nM
same,EC50 (read off the curve),[3],~100 nM
same,EC50,[4],99 nM
same,EC50,[5],6 nM
same,EC50,[6],90 nM
same,EC50,[7],120 nM
same,EC50 (read off the curve),[8],~100 nM
